This is an account of results in US20200010571A1 (Janssen / Centocor, published 2020).

Assay [1] concerns the target T1, human IL-17A (recombinant) (human, UniProt Q16552 24-155). The assay is described as follows: cell-based or functional assay.
The target in assay [2] is T1, human IL-17A (recombinant). The assay is described as follows: cell-based or functional assay. The source holds these as a separate data set.
Assay [3] concerns the target T2, recombinant human IL-17A/F heterodimer (human, UniProt Q16552 24-155; Q96PD4 31-163). The assay is described as follows: cell-based or functional assay.
The target of assay [4] is T2, recombinant human IL-17A/F heterodimer. In words: cell-based or functional assay. This is another data set of the same source.
In assay [5] the target is T3, cynomolgus IL-17A (cynomolgus, UniProt Q16552 24-155 (human entry), limits assumed).
T3 chain: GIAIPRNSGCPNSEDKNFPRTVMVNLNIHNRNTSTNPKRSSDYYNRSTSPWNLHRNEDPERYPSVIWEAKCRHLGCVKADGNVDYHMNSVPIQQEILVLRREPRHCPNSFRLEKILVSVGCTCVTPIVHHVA
In words: cell-based or functional assay.

The target in assay [6] is T3, cynomolgus IL-17A. In words: cell-based or functional assay.
The target in assay [7] is T1, human IL-17A (recombinant). In words: cell-based or functional assay. The source holds these as a separate data set.
Assay [8] concerns the target T1, human IL-17A (recombinant). The assay is described as follows: cell-based or functional assay. The source holds these as a separate data set.
The target in assay [9] is T1, human IL-17A (recombinant). In words: competition ELISA: biotinylated rhIL-17A binding to plate-coated rhIL-17RA-Fc; Experiment 1; 95% CI 0.03759-0.04316. For orientation: ELISA stands for enzyme-linked immunosorbent assay.
In assay [10] the target is T1, human IL-17A (recombinant). In words: competition ELISA: biotinylated rhIL-17A binding to plate-coated rhIL-17RA-Fc; Experiment 2; 95% CI 0.04003-0.04542.
For assay [11], the target named is T1, human IL-17A (recombinant). The assay is described as follows: competition ELISA: biotinylated rhIL-17A binding to plate-coated rhIL-17RA-Fc; Experiment 3; 95% CI 0.07179-0.08047.
For assay [12], the target named is T1, human IL-17A (recombinant). In words: competition ELISA: biotinylated rhIL-17A binding to plate-coated rhIL-17RA-Fc; Experiment 1; 95% CI 0.03924-0.04274.
Assay [13] has as its target T1, human IL-17A (recombinant). In words: competition ELISA: biotinylated rhIL-17A binding to plate-coated rhIL-17RA-Fc; Experiment 2; 95% CI 0.02829-0.03326.
In assay [14] the target is T1, human IL-17A (recombinant). The assay is described as follows: competition ELISA: biotinylated rhIL-17A binding to plate-coated rhIL-17RA-Fc; Experiment 3; 95% CI 0.06727-0.07636.

B1: mAb 4782 (parental anti-IL-17A antibody, IgG1, F405L) (antibody)
heavy: not shown
light: QSVLTQPPSVSVAPGQTARISCSGDNLGDKYANWYQQKPGQAPVLVIYDDIDRPSGIPERFSGSNSGNTATLTISGTQAEDEADYYCGSYDFFLGMIVFGGGTKLTVLGQPKAAPSVTLFPPSSEELQANKATLVCLISDFYPGAVTVAWKADSSPVKAGVETTTPSKQSNNKYAASSYLSLTPEQWKSHRSYSCQVTHEGSTVEKTVAPTECS
A word on the IC50: it is the concentration that inhibits the measured activity by half. Take B1: in assay [1], the “IC50 (µg/mL); Inhibition of native IL-17A mediated GROα production by NHDF; Experiment 1” value came out at 0.0207 µg/mL, the “IC50 (µg/mL); Inhibition of native IL-17A mediated GROα production by NHDF; Experiment 2” value turned out to be 0.0327 µg/mL and the “IC50 (µg/mL); Inhibition of native IL-17A mediated GROα production by NHDF; Experiment 3” value stood at 0.0236 µg/mL. Also, in [2], the “IC50 (µg/mL); Inhibition of native IL-17A mediated IL-6 production by NHDF; Experiment 1” value turned out to be 0.0254 µg/mL, the “IC50 (µg/mL); Inhibition of native IL-17A mediated IL-6 production by NHDF; Experiment 2” value turned out to be 0.0336 µg/mL and the “IC50 (µg/mL); Inhibition of native IL-17A mediated IL-6 production by NHDF; Experiment 3” value amounted to 0.0242 µg/mL. Also, in [3], the “IC50 (µg/mL); Inhibition of IL-17A/F mediated GROα production by NHDF; Experiment 1” value was 0.473 µg/mL, the “IC50 (µg/mL); Inhibition of IL-17A/F mediated GROα production by NHDF; Experiment 2” value is 0.117 µg/mL and the “IC50 (µg/mL); Inhibition of IL-17A/F mediated GROα production by NHDF; Experiment 3” value was 0.317 µg/mL. For the same molecule, in [4], the “IC50 (µg/mL); Inhibition of IL-17A/F mediated IL-6 production by NHDF; Experiment 1” value stood at 0.714 µg/mL, the “IC50 (µg/mL); Inhibition of IL-17A/F mediated IL-6 production by NHDF; Experiment 2” value came out at 0.243 µg/mL and the “IC50 (µg/mL); Inhibition of IL-17A/F mediated IL-6 production by NHDF; Experiment 3” value turned out to be 0.99 µg/mL. For the same molecule, in [5], the “IC50 (µg/mL); Inhibition of cyno IL-17A mediated GROα production by NHDF; Experiment 1” value was found to be 0.0235 µg/mL, the “IC50 (µg/mL); Inhibition of cyno IL-17A mediated GROα production by NHDF; Experiment 2” value came to 0.0466 µg/mL and the “IC50 (µg/mL); Inhibition of cyno IL-17A mediated GROα production by NHDF; Experiment 3” value was determined as 0.0349 µg/mL. Besides, in assay [6], the “IC50 (µg/mL); Inhibition of cyno IL-17A mediated IL-6 production by NHDF; Experiment 2” value came to 0.0437 µg/mL and the “IC50 (µg/mL); Inhibition of cyno IL-17A mediated IL-6 production by NHDF; Experiment 3” value came to 0.0248 µg/mL. Further, in assay [7], the “IC50 (nM); Inhibition of rhTNF-α and IL-17 induced IL-6 secretion from RA-FLSs; Donor 1 (ST1320)” value stood at 0.34 nM; the “IC50 (nM); Inhibition of rhTNF-α and IL-17 induced IL-6 secretion from RA-FLSs; Donor 2 (ST1349)” value was determined as 0.22 nM; the “IC50 (nM); Inhibition of rhTNF-α and IL-17 induced IL-6 secretion from RA-FLSs; Donor 3 (ST1359)” value stood at 0.25 nM. In addition, in assay [8], the “IC50 (nM); Inhibition of rhTNF-α and IL-17A induced GROα secretion from RA-FLSs from three donors; Donor 1 (ST1320)” value is 0.25 nM; the “IC50 (nM); Inhibition of rhTNF-α and IL-17A induced GROα secretion from RA-FLSs from three donors; Donor 2 (ST1349)” value amounted to 0.12 nM; the “IC50 (nM); Inhibition of rhTNF-α and IL-17A induced GROα secretion from RA-FLSs from three donors; Donor 3 (ST1359)” value turned out to be 0.14 nM. In addition, in [9], the IC50 worked out at 0.0403 µg/mL. Moreover, the IC50 in [10] was determined as 0.0426 µg/mL. The IC50 in assay [11] came out at 0.076 µg/mL.

B2: mAb 7206 (parental anti-IL-17A antibody, IgG1, YTE) (antibody)
heavy: QVQLLESGGGLVQPGGSLRLSCAASGFTFSSYAMSWVRQAPGKGLEWVSTISLTSGFTYYADSVKGRFTISRDNSKNTLYLQMNSLRAEDTAVYYCARQLTLDVWGQGTLVTVSSASTKGPSVFPLAPSSKSTSGGTAALGCLVKDYFPEPVTVSWNSGALTSGVHTFPAVLQSSGLYSLSSVVTVPSSSLGTQTYICNVNHKPSNTKVDKKVEPKSCDKTHTCPPCPAPELLGGPSVFLFPPKPKDTLYITREPEVTCVVVDVSHEDPEVKFNWYVDGVEVHNAKTKPREEQYNSTYRVVSVLTVLHQDWLNGKEYKCKVSNKALPAPIEKTISKAKGQPREPQVYTLPPSREEMTKNQVSLTCLVKGFYPSDIAVEWESNGQPENNYKTTPPVLDSDGSFLLYSKLTVDKSRWQQGNVFSCSVMHEALHNHYTQKSLSLSPGK
light: B1 light
Turning to B2, in assay [1], the “IC50 (µg/mL); Inhibition of native IL-17A mediated GROα production by NHDF; Experiment 1” value stood at 0.0198 µg/mL, the “IC50 (µg/mL); Inhibition of native IL-17A mediated GROα production by NHDF; Experiment 2” value worked out at 0.0265 µg/mL and the “IC50 (µg/mL); Inhibition of native IL-17A mediated GROα production by NHDF; Experiment 3” value came out at 0.0215 µg/mL. In [2], the “IC50 (µg/mL); Inhibition of native IL-17A mediated IL-6 production by NHDF; Experiment 1” value was determined as 0.0214 µg/mL, the “IC50 (µg/mL); Inhibition of native IL-17A mediated IL-6 production by NHDF; Experiment 2” value was determined as 0.0242 µg/mL and the “IC50 (µg/mL); Inhibition of native IL-17A mediated IL-6 production by NHDF; Experiment 3” value came out at 0.0232 µg/mL. In addition, in assay [3], the “IC50 (µg/mL); Inhibition of IL-17A/F mediated GROα production by NHDF; Experiment 1” value amounted to 0.725 µg/mL, the “IC50 (µg/mL); Inhibition of IL-17A/F mediated GROα production by NHDF; Experiment 2” value amounted to 0.393 µg/mL and the “IC50 (µg/mL); Inhibition of IL-17A/F mediated GROα production by NHDF; Experiment 3” value is 0.403 µg/mL. Also, in assay [4], the “IC50 (µg/mL); Inhibition of IL-17A/F mediated IL-6 production by NHDF; Experiment 1” value worked out at 0.344 µg/mL, the “IC50 (µg/mL); Inhibition of IL-17A/F mediated IL-6 production by NHDF; Experiment 2” value worked out at 0.269 µg/mL and the “IC50 (µg/mL); Inhibition of IL-17A/F mediated IL-6 production by NHDF; Experiment 3” value worked out at 0.545 µg/mL. In addition, the “IC50 (µg/mL); Inhibition of cyno IL-17A mediated GROα production by NHDF; Experiment 3” value in assay [5] turned out to be 0.0271 µg/mL. Also, the “IC50 (µg/mL); Inhibition of cyno IL-17A mediated IL-6 production by NHDF; Experiment 3” value in assay [6] is 0.0326 µg/mL. In assay [12], the IC50 amounted to 0.041 µg/mL. Further, the IC50 in [13] was found to be 0.0307 µg/mL. The IC50 in assay [14] came to 0.0717 µg/mL.
